From patent publication US20190248900A1 (Y BIOLOGICS, published 2019)

Tests used:
Experiment in all cases: ELISA
CD320 = molecular target: T1, CD320 (Homo sapiens (Human), UniProt Q9NPF0 36-229)
T1 sequence: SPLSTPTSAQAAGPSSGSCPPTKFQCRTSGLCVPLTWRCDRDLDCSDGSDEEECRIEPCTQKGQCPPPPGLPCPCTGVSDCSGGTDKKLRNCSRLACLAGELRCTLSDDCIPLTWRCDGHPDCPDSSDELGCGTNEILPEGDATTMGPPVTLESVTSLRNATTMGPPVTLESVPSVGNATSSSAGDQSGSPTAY

CREG1 = molecular target: T2, CREG1 (Homo sapiens (Human), UniProt O75629 32-220)
T2 sequence: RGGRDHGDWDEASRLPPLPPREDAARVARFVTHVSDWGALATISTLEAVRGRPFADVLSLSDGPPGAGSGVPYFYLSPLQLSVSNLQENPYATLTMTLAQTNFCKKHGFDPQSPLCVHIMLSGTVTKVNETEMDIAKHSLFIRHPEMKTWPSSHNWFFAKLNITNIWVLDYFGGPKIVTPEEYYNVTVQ

SOST = molecular target: T3, SOST (Homo sapiens (Human), UniProt Q9BQB4 24-213)
T3 sequence: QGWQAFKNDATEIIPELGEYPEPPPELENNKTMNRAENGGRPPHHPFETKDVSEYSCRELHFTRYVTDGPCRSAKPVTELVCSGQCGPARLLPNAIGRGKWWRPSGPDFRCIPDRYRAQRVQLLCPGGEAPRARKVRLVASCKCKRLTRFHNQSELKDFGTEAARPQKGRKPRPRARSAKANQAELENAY

SEMA5A = molecular target: T4, SEMA5A (Homo sapiens (Human), UniProt Q13591 23-968)
T4 sequence: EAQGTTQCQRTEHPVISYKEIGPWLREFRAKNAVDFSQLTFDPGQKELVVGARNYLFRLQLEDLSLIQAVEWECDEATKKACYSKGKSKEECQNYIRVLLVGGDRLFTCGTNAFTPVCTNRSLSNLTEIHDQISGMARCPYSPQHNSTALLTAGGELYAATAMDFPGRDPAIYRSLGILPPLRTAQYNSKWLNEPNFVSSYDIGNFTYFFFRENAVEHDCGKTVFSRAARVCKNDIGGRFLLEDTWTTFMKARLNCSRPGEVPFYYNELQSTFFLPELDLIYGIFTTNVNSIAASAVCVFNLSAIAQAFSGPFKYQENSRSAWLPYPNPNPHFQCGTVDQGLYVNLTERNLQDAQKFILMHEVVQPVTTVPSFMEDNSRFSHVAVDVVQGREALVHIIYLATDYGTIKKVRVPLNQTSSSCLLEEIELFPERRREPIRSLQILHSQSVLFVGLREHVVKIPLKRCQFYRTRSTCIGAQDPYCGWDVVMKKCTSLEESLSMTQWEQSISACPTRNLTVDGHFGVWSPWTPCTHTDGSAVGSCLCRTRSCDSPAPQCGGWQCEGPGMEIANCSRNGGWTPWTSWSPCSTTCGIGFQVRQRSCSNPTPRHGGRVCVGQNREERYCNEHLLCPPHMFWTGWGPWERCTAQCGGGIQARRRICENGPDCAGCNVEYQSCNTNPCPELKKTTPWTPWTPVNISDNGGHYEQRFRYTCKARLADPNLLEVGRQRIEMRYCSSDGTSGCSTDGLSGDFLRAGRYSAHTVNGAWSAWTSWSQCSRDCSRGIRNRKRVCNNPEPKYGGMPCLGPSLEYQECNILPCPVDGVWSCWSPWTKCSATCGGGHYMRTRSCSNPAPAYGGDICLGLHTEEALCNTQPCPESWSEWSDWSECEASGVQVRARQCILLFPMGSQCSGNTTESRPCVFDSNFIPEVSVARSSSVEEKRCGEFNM

BTN2A1 = molecular target: T5, BTN2A1 (Homo sapiens (Human), UniProt Q7KYR7 29-248)
T5 sequence: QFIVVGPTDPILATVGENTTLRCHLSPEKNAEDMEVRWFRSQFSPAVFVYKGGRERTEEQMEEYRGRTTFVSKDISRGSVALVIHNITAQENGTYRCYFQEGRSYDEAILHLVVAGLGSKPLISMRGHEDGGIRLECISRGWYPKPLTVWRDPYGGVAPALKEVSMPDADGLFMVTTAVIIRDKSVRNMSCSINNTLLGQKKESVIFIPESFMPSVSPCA

SLITRK2 = molecular target: T6, SLITRK2 (Homo sapiens (Human), UniProt Q9H156 22-621)
T6 sequence: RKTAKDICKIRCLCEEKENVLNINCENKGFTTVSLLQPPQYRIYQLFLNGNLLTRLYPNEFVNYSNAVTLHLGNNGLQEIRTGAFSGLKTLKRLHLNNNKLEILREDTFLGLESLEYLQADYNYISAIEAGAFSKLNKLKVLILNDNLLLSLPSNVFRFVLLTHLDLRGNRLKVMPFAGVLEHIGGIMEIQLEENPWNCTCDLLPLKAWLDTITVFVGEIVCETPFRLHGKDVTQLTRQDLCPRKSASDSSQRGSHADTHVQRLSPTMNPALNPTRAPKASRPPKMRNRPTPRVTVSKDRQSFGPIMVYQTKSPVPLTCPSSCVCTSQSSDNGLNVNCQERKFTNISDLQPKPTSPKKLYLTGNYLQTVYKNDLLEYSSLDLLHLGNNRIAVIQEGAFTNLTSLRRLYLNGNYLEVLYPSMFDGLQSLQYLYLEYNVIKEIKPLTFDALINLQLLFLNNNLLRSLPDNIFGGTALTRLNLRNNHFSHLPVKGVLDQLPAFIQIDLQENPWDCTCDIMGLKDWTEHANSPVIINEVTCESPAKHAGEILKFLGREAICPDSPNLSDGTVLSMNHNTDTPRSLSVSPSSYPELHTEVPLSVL

TNFSF9 = TNFSF9 (Homo sapiens (Human), UniProt P41273 50-254)
TLR3 = TLR3 (Homo sapiens (Human), UniProt O15455 24-704)

Measured: binding result

Sequence of TNFSF9 (P41273 50-254 limits assumed): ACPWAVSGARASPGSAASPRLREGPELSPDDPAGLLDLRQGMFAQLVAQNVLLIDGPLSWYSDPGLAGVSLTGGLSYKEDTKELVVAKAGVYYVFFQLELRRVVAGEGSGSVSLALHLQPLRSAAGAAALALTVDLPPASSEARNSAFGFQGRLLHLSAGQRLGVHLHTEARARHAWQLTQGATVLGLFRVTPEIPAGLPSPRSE

B1: PD1-45D6 (antibody, V domains shown)
VH: QVQLVESGGGVVQPGRSLRLSCAASGFTFSSYAMHWVRQVPGKGLEWVAVISYDGNDKYYADSVKGRFTISRDNSKNTLYLQMNSLRAEDTAVYYCVPTTFEYWGQGSQVTVSS
VL: DIVMTQTPLSLPVTPGEAASISCRSSQSLLDSDDGKTYLDWYLQKPGQSPQLLIYTLSYRASGVPDRFSGSGSGTEFNLRISRVEAEDVGIYYCMQRVEFPFTFGQGTKLDIK
notes: scFv-phage in the screening ELISA; whole IgG in the other assays
no binding (tested: 1 ug/ml): all assays above

B2: PD1-41C9 (antibody, V domains shown)
VH: QMQLVESGGGVVQPGRSLRLSCAASGFTFSSYAMHWVRQAPGKGLEWVAVISYDGSNKYYADSVKGRFTISRDNSKNTLYLQMNRLRSEDTAVYYCTTTTFDSWGQGTLITVSS
VL: DIVMTQTPLSLPVTPGEAASISCRSSQSLLDSEDGNTYLDWYLQKPGQSPQLLIYTLSHRASGVPDRFSGSGSGTDFTLKISRVAAEDVGLYYCLQRMGFPYTFGQGTKLDIK
notes: as for B1
no binding (tested: 1 ug/ml): all assays above

B3: PD1-49A2 (antibody, V domains shown)
VH: QVQLVESGGGVVQPGRSLRLSCAASGFTFSSYAMHWVRQAPGKGLEWVAVISYDGSNKYYADSVKGRFTISRDNPKNTLYLQMNSLRAEDTAVYYCTTTTFDSWGRGTLVTVSS
VL: DIVMTQSPLSLPVTPGEPASISCRSSQSLFDSDDGNTYLDWYLQKPGQSPQLLIYTLSHRASGVPDRFSGSGSGTDFTLKISRVEAEDVGIYYCLQRMGFPYTFGQGTKVEIK
notes: scFv-phage in the screening ELISA; whole IgG in the other assays; also called Parent 49A2
no binding (tested: 1 ug/ml): all assays above
